Substrate in the data set: O=C1OC(c2ccc(O)c(S(=O)(=O)O)c2)(c2ccc(O)c(S(=O)(=O)O)c2)c2c(Br)c(Br)c(Br)c(Br)c21
In words: TP_TRANSPORTER: uptake in bile canalicular membrane vesicles from Wistar rat. Format: functional, cell membranes, Bile canalicular membrane vesicle.

These results are taken from ChEMBL document CHEMBL2074310, “ATP-dependent organic anion transport system in normal and TR- rat liver canalicular membranes” (Am J Physiol, 1992).

As usually defined, the Km is the substrate concentration at which the rate is half of its maximum.

B1: ATP-binding cassette sub-family C member 2 (Rattus norvegicus) (protein)
chain: MDKFCNSTFWDLSLLESPEADLPLCFEQTVLVWIPLGFLWLLAPWQLYSVYRSRTKRSSITKFYLAKQVFVVFLLILAAIDLSLALTEDTGQATVPPVRYTNPILYLCTWLLVLAVQHSRQWCVRKNSWFLSLFWILSVLCGVFQFQTLIRALLKDSKSNMAYSYLFFVSYGFQIVLLILTAFSGPSDSTQTPSVTASFLSSITFSWYDRTVLKGYKHPLTLEDVWDIDEGFKTRSVTSKFEAAMTKDLQKARQAFQRRLQKSQRKPEATLHGLNKKQSQSQDVLVLEEAKKKSEKTTKDYPKSWLIKSLFKTFHVVILKSFILKLIHDLLVFLNPQLLKLLIGFVKSSNSYVWFGYICAILMFAVTLIQSFCLQSYFQHCFVLGMCVRTTVMSSIYKKALTLSNLARKQYTIGETVNLMSVDSQKLMDATNYMQLVWSSVIQITLSIFFLWRELGPSILAGVGVMVLLIPVNGVLATKIRNIQVQNMKNKDKRLKIMNEILSGIKILKYFAWEPSFQEQVQGIRKKELKNLLRFGQLQSLLIFILQITPILVSVVTFSVYVLVDSANVLNAEKAFTSITLFNILRFPLSMLPMVTSSILQASVSVDRLERYLGGDDLDTSAIRRVSNFDKAVKFSEASFTWDPDLEATIQDVNLDIKPGQLVAVVGTVGSGKSSLVSAMLGEMENVHGHITIQGSTAYVPQQSWIQNGTIKDNILFGSEYNEKKYQQVLKACALLPDLEILPGGDMAEIGEKGINLSGGQKQRVSLARAAYQDADIYILDDPLSAVDAHVGKHIFNKVVGPNGLLAGKTRIFVTHGIHFLPQVDEIVVLGKGTILEKGSYRDLLDKKGVFARNWKTFMKHSGPEGEATVNNDSEAEDDDDGLIPTMEEIPEDAASLAMRRENSLRRTLSRSSRSSSRRGKSLKNSLKIKNVNVLKEKEKEVEGQKLIKKEFVETGKVKFSIYLKYLQAVGWWSILFIILFYGLNNVAFIGSNLWLSAWTSDSDNLNGTNNSSSHRDMRIGVFGALGLAQGICLLISTLWSIYACRNASKALHGQLLTNILRAPMRFFDTTPTGRIVNRFSGDISTVDDLLPQTLRSWMMCFFGIAGTLVMICMATPVFAIIIIPLSILYISVQVFYVATSRQLRRLDSVTKSPIYSHFSETVTGLPIIRAFEHQQRFLAWNEKQIDINQKCVFSWITSNRWLAIRLELVGNLVVFCSALLLVIYRKTLTGDVVGFVLSNALNITQTLNWLVRMTSEAETNIVAVERISEYINVENEAPWVTDKRPPADWPRHGEIQFNNYQVRYRPELDLVLKGITCNIKSGEKVGVVGRTGAGKSSLTNCLFRILESAGGQIIIDGIDVASIGLHDLRERLTIIPQDPILFSGSLRMNLDPFNKYSDEEVWRALELAHLRSFVSGLQLGLLSEVTEGGDNLSIGQRQLLCLGRAVLRKSKILVLDEATAAVDLETDSLIQTTIRKEFSQCTVITIAHRLHTIMDSDKIMVLDNGKIVEYGSPEELLSNRGSFYLMAKEAGIENVNHTEL
Take B1: the Michaelis constant (Km) is 31 µM.
